Assay results taken from publication PMC4441257, “A large genomic island allows Neisseria meningitidis to utilize propionic acid, with implications for colonization of the human nasopharynx” (Molecular Microbiology, 2014).

Tested on: CCC(=O)O
Assay: purified protein
Text: hydroxamate assay of propionate kinase activity on NMB0435 (AckA1)

**Q.** With “NMB0435 (AckA1) (Neisseria meningitidis MC58)” as the substance, how does the Km read?
**A.** The Km was 16.3 ± 2.2 mM.
